Experimental data from paper PMC5871715.
Where two headings read alike, the source gives them in different places.

Key:
Netrin-1 (Homo sapiens) [1] = target: Netrin-1 (Homo sapiens) (UniProt O95631); conditions: cited from earlier work
Netrin-1 (Homo sapiens) [2] = target: Netrin-1 (Homo sapiens) (UniProt O95631); conditions: cited from earlier work; remark: listed apart in the source
[3] = target: full-length wild-type rat DCC on the cell surface (UniProt Q63155); assay: cell-binding assay; conditions: n = 100 for each group; parent: est. 49; read off a plot
Sequence of full-length wild-type rat DCC on the cell surface (Q63155 26-1445): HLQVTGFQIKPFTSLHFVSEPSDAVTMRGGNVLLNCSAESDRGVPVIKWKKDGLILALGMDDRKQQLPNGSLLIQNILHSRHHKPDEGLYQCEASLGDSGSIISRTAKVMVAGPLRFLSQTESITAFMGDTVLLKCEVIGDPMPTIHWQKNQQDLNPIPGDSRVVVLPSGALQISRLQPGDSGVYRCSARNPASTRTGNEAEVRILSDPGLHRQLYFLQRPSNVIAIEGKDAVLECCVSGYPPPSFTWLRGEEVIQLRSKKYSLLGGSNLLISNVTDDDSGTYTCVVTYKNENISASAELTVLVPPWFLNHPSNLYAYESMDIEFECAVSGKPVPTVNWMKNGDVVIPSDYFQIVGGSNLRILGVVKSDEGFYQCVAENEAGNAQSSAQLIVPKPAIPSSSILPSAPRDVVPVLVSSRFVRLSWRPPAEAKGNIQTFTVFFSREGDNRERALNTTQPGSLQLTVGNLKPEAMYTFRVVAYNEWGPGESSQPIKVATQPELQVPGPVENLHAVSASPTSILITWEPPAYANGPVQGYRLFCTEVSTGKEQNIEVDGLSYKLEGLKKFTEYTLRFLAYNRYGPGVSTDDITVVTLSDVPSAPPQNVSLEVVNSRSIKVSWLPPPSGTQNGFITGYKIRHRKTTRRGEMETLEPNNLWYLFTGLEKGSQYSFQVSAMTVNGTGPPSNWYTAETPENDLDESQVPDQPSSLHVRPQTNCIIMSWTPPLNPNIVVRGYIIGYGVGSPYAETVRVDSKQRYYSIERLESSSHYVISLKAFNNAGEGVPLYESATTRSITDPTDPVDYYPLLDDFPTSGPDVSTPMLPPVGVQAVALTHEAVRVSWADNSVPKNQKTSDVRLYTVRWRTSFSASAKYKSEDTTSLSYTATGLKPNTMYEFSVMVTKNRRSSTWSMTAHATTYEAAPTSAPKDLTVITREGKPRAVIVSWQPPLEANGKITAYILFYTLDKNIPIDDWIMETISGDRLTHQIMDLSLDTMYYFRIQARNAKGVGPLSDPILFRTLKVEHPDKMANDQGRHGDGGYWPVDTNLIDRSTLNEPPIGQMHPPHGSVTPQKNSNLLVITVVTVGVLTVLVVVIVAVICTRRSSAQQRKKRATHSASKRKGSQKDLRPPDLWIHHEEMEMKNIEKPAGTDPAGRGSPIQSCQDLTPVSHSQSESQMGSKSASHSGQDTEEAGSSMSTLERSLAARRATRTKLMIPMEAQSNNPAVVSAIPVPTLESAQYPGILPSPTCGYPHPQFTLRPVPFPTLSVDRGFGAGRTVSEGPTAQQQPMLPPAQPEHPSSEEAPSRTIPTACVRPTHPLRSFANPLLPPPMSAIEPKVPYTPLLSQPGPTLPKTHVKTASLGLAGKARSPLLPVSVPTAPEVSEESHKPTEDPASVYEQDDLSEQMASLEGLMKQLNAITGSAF

Sequence of DCC Fn5 (P43146 846-942): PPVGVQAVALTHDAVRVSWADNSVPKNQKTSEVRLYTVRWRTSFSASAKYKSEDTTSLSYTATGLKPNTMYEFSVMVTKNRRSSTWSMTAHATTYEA

Substance	response (% positive binding) [3]	other results
DCC Fn5 (from UniProt P43146)		Kd (Netrin-1 (Homo sapiens) [1]): 5000 nM
Draxin (from UniProt Q8NBI3)		Kd (Netrin-1 (Homo sapiens) [2]): 10 nM
wild-type rDraxin-Flag R282A	59	
wild-type rDraxin-Flag R282D	6	
wild-type rDraxin-Flag R322A	3	
wild-type rDraxin-Flag R322D	10	
